The DeepSol protein solubility set

Assay: soluble on expression in E. coli; label from the status in PepcDB or PDB records

Row | Sequence | soluble on expression in E. coli
1 | MGSDKIHHHHHHMADTAPQLKRKREQEAEEAETPSTEEKEAGVGNGTSAPVRLPFSGFRVQKVLRESARDKIIFLHGKVNEDSGDTHGEDAVVILEKTPFQVEHVAQLLTGSPELKLQFSNDIYSTYNLFPPRHLSDIKTTVVYPATEKHLQKYMRQDLRLIRETGDDYRTITLPYLESQSLSIQWVYNILDKKAEADRIVFENPDPSDGFVLIPDLKWNQQQLDDLYLIAICHRRGIRSLRDLTPEHLPLLRNILREGQEAILKRYQVTGDRLRVYLHYLPSYYHLHVHFTALGFEAPGSGVERAHLLAQVIENLECDPKHYQQRTLTFALRTDDPLLQLLQKAQQERN | soluble
2 | MGSDKIHHHHHHMAFCNNANLLNVFVRHIANNQLRSLAEVATVAHQLKLLKDDFFASDQQAVAVADRYPQDVFAEHTHDFCELVIVWRGNGLHVLNDRPYRITRGDLFYIHADDKHSYASVNDLVLQNIIYCPERLKLNLDWQGAIPGFNASAGQPHWRLGSMGMAQARQVIGQLEHESSQHVPFANEMAELLFGQLVMLLNRHRYTSDSLPPTSSETLLDKLITRLAASLKSPFALDKFCDEASCSERVLRQQFRQQTGMTINQYLRQVRVCHAQYLLQHSRLLISDISTECGFEDSNYFSVVFTRETGMTPSQWRHLNSQKD | not soluble
3 | MGSDKIHHHHHHMAFTNNVMIVRHKLLAKLVNLWKENKLTNEIDRLPIELSPRRSRPLGRCCIHKERAVYKYKLFPLLGFDMTDETDELTSLSEYARQALERKNKQKENILCVIDEACSSCVQVNYEVTNLCRGCVARSCYMNCPKDAIRFRKNGQAKIDHDACISCGKCHQSCPYHAIVFIPVPCEEACPVKAISKDENGIEHIDESKCIYCGKCLNACPFGAIFEISQAFDVLEGIRSGEKMIAIPAPSILGQFNTSIEAVYGALRQMGFADVVEVAQGAMDTVSHEAAELKEKLEEGQPFMTTSCCPSYIELVNKHIPGMKPYVSSTGSPMYYAARIAKERHPDAKIVFIGPCVAKRKEARRDECVDYILTFEEMASIFEGLDIQLEQTQPFSVLYTSVREAHGFAQAGGVMGAIKAYLGEEAKKFSAIQVSDLNKKNIGLLRAAAKTGKAQGQFIEVMACEGGCISGPSAHNDAIGGRRQLNQELIKRRESYEETHR | not soluble
4 | MGSDKIHHHHHHMAGATLLTSSCNDWLDVLPKNEQVSPEYWKTKEQVEEVLAQGYQNMRLTVPTLIYWGELRGASIYAYSGKSKQELQNFQLNSSSGECKWGGFYSILNVANSIIKYAPEVKRQDETYHEAVMNSNMAEAYFMRAWTYFTLVRNFKEVPLILEPYMTDEYAVDIPKSSEETIIAQIKLDIENALSTGAAKEMYDDEDWTGMSKGRVTVWALYALMADVCLWSEDYDGCVRYADMLINSTSAFRPAFVEDPEQWYNIFFPGNSNGSIFELNFDQSRNQSPDDDATASTYPSPSNVYPWTQSTVASLQFSNAMCKRLFDEQTDQWVTSNTVRGYGNTFVLSSGTVIGNSNTEGYLPFKFRIGGKDGLSTTRSYKDANWILYRMADVLLMKAEALIWKGGEANFAQALELINKIRTRANVTTLSVQTNAVSQENMLGYLLQERDLEFAAEGKRWYDLLRFGRSQNFKYKDQFINMIIENNSTVSASWIRSVLKNTDAWYLPISQGEIDSNPNLIQNPYYDVTAN | not soluble
5 | MGSDKIHHHHHHMAGIRAKQKEKTRQALINAAMNQLSAENGFSSLSLREVAREAGIAPTSFYRHFRDMDELGLTLVDECGLALRQLLRQARQRIESGGSIIRVSIETFMQFVANNTATFRLLLQERSGRSRSFRLAVVREIDHFKAELEDYLVNEQSFSRELAELQSDTIAKIVFSAGADCFDVDEEEREIITEKTILQVRLVARGAEATRRLLKRES | not soluble
6 | MGSDKIHHHHHHMAIITRIEVQKRNNERYNIFIHQNGQDVYAFSVDEQVLIKQGLRKGLDIDAEQMKQILYEDEVQKTFNLALHYLSYRMRSVHEVRTYLKKKDREEPIIEHVLHRLTEQRLLDDHAFAEAFIQTKRATTSKGPLKLKQELAEKGVSEKTIEGALTTFSYEEQVEQVKAWLEKQKGRTFKGSSLAWKQKLSRQLLAKGYTSPVIEEAFADVPIKQEEEEEWEALKAFGEKAMRKYAGKKTGWELQQKVKQALYRKGFSLEMIERYLND | not soluble
7 | MGSDKIHHHHHHMAILTITKQFGSGGGEIGSAVANLLGYEYIPLKRVFEEAGQAGNRIKKLADEVSKSVPGLWERTDWSFLAFVAFSQSTILNYALQNNIVVMTRGGNMLLKSIPHALRILVTAPFDVRVRRIMEREEISEEIAVMMAKKADREMAVTIQQIYGTNWMDPTEYDQVIDTSKQNWNEIARSLKDSLMAKEKDFTAEAQKILNMKALATYIKVKIMTSPAFITPTLEVEMKGDILVISGVVRNPDQHKRIEEEVKKLAGDRYVEFHIHYRGSWPFRGI | not soluble
8 | MGSDKIHHHHHHMAINTTPLSESSKNNPDKQNNFVIALAGNPNVGKSTVFNRLTGLKQHTGNWPGKTVIKAEGTFSHRNRHYTLVDLPGTYSLHASSSDEEVARNFICFSRPDITLVVCDATCLERNLNLVLQILEITDRVLVCVNLLDEAERKGIQVDIAMLARQLGIPVVGTAARSGRGLESLKNVLDDMLAGKIAIQPRQLVYDPELEASINRIEKRLAPYLPAWINSRWVTLRVLERDFSILEHISNHKNNDFPRQVLKEEVALCLR | not soluble
9 | MGSDKIHHHHHHMAKKAKVQFECQSCGYVSPKYLGRCPNCGQWNSMVEEVIQDTSDRRARVSLTGKKTQPQRLSEVIPKKEPRVKTELVELNRVLGGGVVPGSLVLIGGDPGIGKSTLLLQVSQQLAATGGTVLYVSGEESAEQIKLRAERLGTVNETFYLYAETDMHEISRAIEKLEPDYVIIDSIQTMTQPDVTSVAGSVSQVRETTAELLKLAKTNGIAIFIVGHVTKEGSIAGPRMLEHMVDTVLYFEGDKHHTFRILRAVKNRFGSTNEIGIFEMQTHGLVEVMNPSQVFLEERLEGATGSSIVVAMEGSRPILVEIQALVTPTMFGNAKRTTTGLDFNRVSLIMAVLEKRAGLLLQNQDAYLKAAGGVKINEPAIDLALAISIASSYKEKGTSSSECFIGEIGLTGEIRRVNSIEQRVREAQKLGFTKVYVPKNNLGGWEAPEGIEIIGVSTIGETLRKVFK | not soluble
10 | MGSDKIHHHHHHMAKSDLIVGLDIGTTKICCVVGEPTEEGIDIVGIGTSPSTGLRKGVVVNIEQTVQSIKKALEEAELMAGCEIRSVYAGIAGSHIKGANSDGVIAVKGGEVAPRDVERVLDAAKALNIPMDREVIHILPQEYIVDEQRGIADPLGMAGVRLEVKVHIVTGAVASAQNIVRSCHRSGLDVSDIVLEALASSKAVLTEEEREIGVALVDLGGGTTDIAVFANDSIKHTGVLALGGQNLTNDIAFGLRTPMASAEKIKIKYGCAMAEMVRDDEGIEVASVGDREPRRLSRQVLAEICEPRMEEILSLVDQELVRYGFKNMIGAGVVLTGGTALIEGCQELGEQIFNLPTRIGYPRNVGGLKDVVNSPKFATAVGLLCYGAEKEGLELKFRIRDGNMFNRVLSRMRKWFSDIS | not soluble
11 | MGSDKIHHHHHHMAKVFLKRMNRRISGGHLWIFYNEILKVEGEYENGSVVDVFRPDGSFFGKGYINDNSKIRVRILTWKNEVIDRNFIKNRIESALKRKKKLVKETTAFRVVHSEGDFLPGLIVDLFGDYLVFQITTLGMEKMKDWILDSLVEIFKPKGIYEKSEGTFREKEGLDNREEWVYGKGPELIEFEMNGFKFLADTRGQKTGFFLDQRENARMVMDLAEGKVCLDVFSYTGNFAVHLLKGGAKHVTLVDYSERALEVAREILKLNGFDSSRYDLLPGNAFDILKSFDREGRKYDLVVLDPPSFAKSSSNLESARRGYKEINLRAMRILKKPGVLVTSSCTQIVSEELFREILFDASFDTKTSLTVLRRGGQPPDHPVLMNVPETQYLKFYILQVDKR | not soluble
12 | MGSDKIHHHHHHMALPTQLVYPGFEKIPRFWDNEQQSQVARVDPGEYYYSCQDEFIYTRLGSCVAACIWDPLMGIGGLNHFLLPEKVLHEDWHQLTSYSCRYGNWAMEQLINGILSAGGLKSRLKAKIFGGATLGRISVLNVGQSNIAFVREYLALEGIPVMSEDLGGPWPRKVLFHPQSGRVRLKRLEMTGMAQIEREEEAYLNDVAEHAKVPEPGSIELF | not soluble
13 | MGSDKIHHHHHHMALYPLPALVEQLMTQPIIFIGGKGGVGKTTTAAALASYYASQGKKTLIVSTDPAHSLGDVLKVPLKNQKTVVTPYLDAIELNPDLIVDEHFAQVERTITSYANPDMMPKIREHLRLSKSAPGAQEAAMLESMCQHLVAAADAGYEHIIFDTAPTGHTLRLLVLPEMMGAWTDGLLAQQRRQAKLRSVANHLGSHEQANNNKNDLANPFVERKSDRWEQAVSVLEKRKQLFRQAGLLLHDRRKTAIVLVMTADVLPLAETKRAIEQLEESNLIPAAIVINQLITQTQSDAFWHHRAERQQQLMQDIEKNFTNYPLYPIYLQQTDVRGTDALSALVSPVS | not soluble
14 | MGSDKIHHHHHHMANTSSDWAGAPQNASADGEFVRDTNYIDDRIVADVPAGSEPIAQEDGTFHWPVEAGRYRLVAARACPWAHRTVITRRLLGLENVISLGLTGPTHDVRSWTFDLDPNHLDPVLQIPRLQDAYFNRFPDYPRGITVPALVEESSKKVVTNDYPSITIDFNLEWKQFHREGAPNLYPAELREEMAPVMKRIFTEVNNGVYRTGFAGSQEAHNEAYKRLWVALDWLEDRLSTRRYLMGDHITEADIRLYPTLVRFDAVYHGHFKCGRNKITEMPNLWGYLRDLFQTPGFGDTTDFTEIKQHYYITHAEINPTRIVPVGPDLSGFATPHGREKLGGSPFAEGVTLPGPIPAGEEVKNPEPFQK | not soluble
15 | MGSDKIHHHHHHMANVTPEIVKALFTGFGKNFKDGLAKAPSQYTAIATVIKSTTASNTYAWLGQMPKLTEWIGKRAITAIQSHGYAIVNKDWASGVEIKRTDIEDDNIGVYSPLVEELGRSAGEQPDELVFGALKGGFTTECYDKQYFFDTDHPVGANPDGTSPTSVSNITDDGTSVTADGAWYLLDCSRALKPLIFQQRKPATPAQMTDANAQKVFEDNVYTRCNVGYGFWQMAHAVKGKLNAENLWKAIKAMRAVHSDGGHKLGIKPTHIVVPTSLQEEAVKLLERELRVEDGAAVDNEFKNMKLTLIVADYL | not soluble
16 | MGSDKIHHHHHHMAPLRIRYQTHEFGVLDIHIRTLRDNQEFEDINGEAEKLGISSATWPLFGIVWPSEQVLSHHMLDYPIEGKRILEVGCGIGLASLVLNHRLADITATDYHPETGSFLSQNVALNKGRTIPFVRTGWADETSKLGLFDLIIGSDLLYEQEHADLLSQFIEQHAKPICDVILVDPGRGNHAKFSKRMVTLGYEHSQHKPIHTEFLLAPFGGQILSYSRTKS | not soluble
17 | MGSDKIHHHHHHMAQNIYDQPDFFAGYSQLGRSIEGLDGAAEWPALRAMLPEVGGLRIVDLGCGFGWFCRWAHEHGASYVLGLDLSEKMLARARAAGPDTGITYERADLDKLHLPQDSFDLAYSSLALHYVEDVARLFRTVHQALSPGGHFVFSTEHPIYMAPARPGWAIDAEGRRTWPIDRYLVEGPRKTDWLAKGVVKHHRTVGTTLNALIRSGFAIEHVEEFCPTDAQITARPELAEELDRPMFLLVSARR | not soluble
18 | MGSDKIHHHHHHMAQVLWIIQIISKGLVRTLRFKAHILRMILLGSLGVAIHVSVVNAAVTDNSLPQESIPLVQGFIDAVKAHDRQAIADYMAYPIKRTNPIPAINTPEELLKRFDQVFDPEILETIAQSQVEADWQAMGWRGIMLGSGTIWMDFDGKITAVNYQTPAETKLKAELIANQKTGLHESVSQFVSPELAWQTAKFTIRVDNMGNSQYRYASWAKGKPLSEKPDLVLNQGKLVFDGSGGNHSFQFTSGPYLYVCDVIVLGTSDSPIGELVVFKHDRVLLREPAIKAE | not soluble
19 | MGSDKIHHHHHHMARGYIAKKLLVEGKDDLRVIPELIEKNGIVWGNNKKEAIVTIEDYGGYTNINSDLVSTELQASGLTHLGLMVDADDKPQTRWQSIREACLDSILDIPEEIPTTGLIHTTNTGIKFGVWIMPDNLMQGMLETFLAYMIPDESEPLWMYAQEVVAEAKIKGASFIDARIDKAKIHTWLAWQEEPGR | not soluble
